Measured values: the supplement of paper PMC10567573
± gives the standard deviation.

Test: protein stability index of a GFP-peptide fusion (GPS, HEK-293T) (PSI 1-6); higher = more stable
Conditions: c terminus: a fixed tail appended
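Further: 24-mer peptide tiles fused after GFP, lentivirally expressed, FACS-sorted into six equal bins by GFP/DsRed ratio, decoded by Illumina sequencing, PSI is the read-weighted mean bin number.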

Sequence	protein stability index (treatment: DMSO)	protein stability index (treatment: MLN4924 1 uM, 8 h)
LLDRARGAAAQGQTQTVAAQAQAL [PI4K2A]	4.3 ± 0.29	4.38 ± 0.2
LLFKYQMKEPITKAEILESVIKNY [MAGEA10]	2.53 ± 0.32	2.74 ± 0.29
LLLSILNPTRQDESIQRIAVHLCN [ZER1]	2.75 ± 0.42	2.42 ± 0.45
LLPKGSKEEQRDYVFYLAVGNYRL [FIS1]	2.63 ± 0.56	2.15 ± 0.063
LLRFAQVFSQMIHLNETVKAPDIE [FEM1B]	2.67 ± 1.1	2.46 ± 0.85
LLSLKQNHEQEVNTLRCQLGDRLN [KRT33B]	3.38 ± 0.16	3.46 ± 0.2
LMSGCSSELKNRMEYALNMLLQRC [PLK2]	2.04 ± 0.22	2.22 ± 0.29
LNQKGTAVETEGSGSRHPPWARGC [SLC2A12]	3.98 ± 0.29	4.08 ± 0.38
LNQQVVSSSEQLQCCQTEIIELRR [KRT36]	4.29 ± 0.22	4.04 ± 0.27
LNTRSQAPLLRWVLTLSFLVATVA [HMOX1]	2.33 ± 0.46	2.15 ± 0.31
LPFGPFNGTAWTYHSQDELGGFSH [PKD2L1]	2.41 ± 0.13	2.58 ± 0.18
LPIFTPAKMGATKEEREDTPIQLQ [TCAP]	4.7 ± 0.089	4.72 ± 0.088
LPKELPADAVNLTIPASLDLSPLL [PLAGL1]	3.32 ± 0.19	3.48 ± 0.28
LPQETNLTLKVCKPQAPQKLDPTL	3.58 ± 0.36	3.91 ± 0.49
LPREPGDSAQFTKALAIILHLLYL [FEM1A]	2.16 ± 0.12	2.23 ± 0.12
LQELCYQWLRPHVSTKEQILDLLV [ZSCAN9]	2.52 ± 0.094	2.45 ± 0.28
LQVRGYPEEKKEEEGSANRRPEDQ [CHGA]	5.61 ± 0.21	5.7 ± 0.25
LRFLHENQLTHTDLKPENILFVNS [CLK3]	2.49 ± 0.23	2.86 ± 0.36
LRFLYSDEVQIGPETVMTTLYTAK [BTBD1]	2.48 ± 0.38	1.99 ± 0.24
LRREPSERLTAPEILLHPWFESVL [TRIB1]	2.51 ± 0.25	2.74 ± 0.52
LRRKEQLWEKLAKQGELPREVRRA [NOP53]	3.58 ± 0.18	3.7 ± 0.36
LRVGIPENAPIGTLLLRLNATDPD [PCDHGC5]	2.92 ± 0.18	3.22 ± 0.32

Sequence	protein stability index (treatment: DMSO)	protein stability index (treatment: MLN4924 1 uM, 8 h)
LSGASPFLGETKQETLTNISAVNY [DAPK3]	3.73 ± 0.2	3.85 ± 0.25
LSKASEPKYQLFVPQLVTGRCATR [RNF180]	2.88 ± 0.4	2.94 ± 0.2
LSPTQRQKNFELAFTMAENLANCE [SMTNL2]	3.39 ± 0.19	3.67 ± 0.52
LSRRQLCPLTPGPGKALGPAATMA [C2CD2L]	2.93 ± 0.37	3.13 ± 0.38
LSSSCCHTVPDFHLSSPAKNFFKK [PLK2]	2.99 ± 0.18	3.25 ± 0.31
LTCNNYKNKMMVCQVGGIEALVRT [CTNNB1]	2.32 ± 0.38	2.23 ± 0.56
LTCVICLNYLVDPVTICCGHSFCR [TRIM43]	2.83 ± 0.82	2.91 ± 0.97
LTLKVCKPQAPQKLDPTLSSCFFI	2.37 ± 0.59	2.3 ± 0.3
LTSQNIEIKLVSDVTADSKVLEAL [PLD5]	3.13 ± 0.31	3.18 ± 0.43
LVCTFSSQVCRVAYEIMQTLHPDA [FUT8]	2.95 ± 0.12	3.22 ± 0.55
LVFPSSSSSSSSQAPGQPPGNQAE [ZBTB22]	5.06 ± 0.2	4.71 ± 0.067
LVLKVLWNDFLMCYSSRPLLCWSV [SLC19A2]	3.19 ± 0.48	3.45 ± 0.53
LVLVVNTLRRIQASMAPAAALPPV [SERTAD1]	2.35 ± 0.099	2.33 ± 0.2
LVQTTDFFYPLVEDPYMMGRIACA [SEPHS2]	2.34 ± 0.47	2.23 ± 0.29
LVVASGVIYCLGGYDGLNILNSVE [KLHL12]	3.28 ± 0.25	3.03 ± 0.16
LVWRNSIRSSFISSLSFFLKKMGK [FBXO39]	2.65 ± 0.65	2.9 ± 0.46
LWDTSGQGRFCTIFRSYSRGAQGV [RAB40A]	2.24 ± 0.41	2.51 ± 0.36
LWSDPMAQEGCKANTIRGGGCYFG [PPEF2]	2.68 ± 0.73	2.5 ± 0.44
LYLFGGHHSRGNTNKFYMLDSRST [KLHDC2]	2.16 ± 0.12	2.17 ± 0.18
LYPNPRERSSFYSCAGGRLFQQSC [CHIT1]	1.94 ± 0.21	2.37 ± 0.43
MAAGQNGHEEWVGSAYLFVESSLD [TRADD]	2.05 ± 0.26	2.65 ± 0.37
MAAGSTTLHAVEKLQVRLATKTEP [ELOA2]	3.62 ± 0.23	3.61 ± 0.36
